The text below walks through data of patent publication US20240317841A1.

Where a chain is given by its changes, count along the chain named.

For assay [1], the target named is H1-SC (Influenza A virus). Nature of the assay: FACS, HA on mammalian cells; 2nd only 7.5. Background: A flow cytometer gives signals particle by particle.
Assay [2] has as its target H16 (Influenza A virus). Nature of the assay: FACS, HA on mammalian cells; 2nd only 6.9.
The target in assay [3] is H5 hemagglutinin (influenza A virus). As to the kind of experiment: BLI, HA-5. On the technique in general: Biolayer interferometry detects binding as a change in optical thickness at a sensor tip.
In assay [4] the target is H8 (Influenza A virus). As to the kind of experiment: flow cytometry, HA on mammalian cells; mock cells 0.96.
In assay [5] the target is H12 (Influenza A virus). The description is as above.
Assay [6] addresses H13 (Influenza A virus). The description is as above.
The target in assay [7] is H11 (Influenza A virus). The description is as above.
Assay [8] has as its target H4 (Influenza A virus). The assay is described as above.
Assay [9] addresses H10 (Influenza A virus). Described as above.
Assay [10] has as its target H12 (Influenza A virus). Nature of the assay: FACS, HA on mammalian cells; 2nd only 9.7.
Assay [11] concerns the target H18 (Influenza A virus). Nature of the assay: FACS, HA on mammalian cells; 2nd only 5.5.
For assay [12], the target named is H4 (Influenza A virus). Nature of the assay: FACS, HA on mammalian cells; 2nd only 11.
Assay [13] deals with H10 (Influenza A virus). Nature of the assay: FACS, HA on mammalian cells; 2nd only 8.7.
Assay [14] has as its target H1-CAL (Influenza A virus). Nature of the assay: FACS, HA on mammalian cells; 2nd only 7.4.
The target in assay [15] is HA from an H1N1 Swine Eurasian avian-like (EA) strain, A/Swine/Jiangsu/J004/2018 (influenza A virus (H1N1, A/Swine/Jiangsu/J004/2018)). As to the kind of experiment: flow cytometry, HA on mammalian cells; mock 4.30.
The target is the same in assay [16]. As to the kind of experiment: flow cytometry, HA on mammalian cells; mock 7.62 [Cont'd].
Assay [17] concerns the target H7 hemagglutinin (influenza A virus). Nature of the assay: BLI, HA-7.
In assay [18] the target is H17 (Influenza A virus). Nature of the assay: FACS, HA on mammalian cells; 2nd only 4.1.
Assay [19] addresses H17 (Influenza A virus). Nature of the assay: flow cytometry, HA on mammalian cells; mock cells 0.96 [cont'd].
For assay [20], the target named is H16 (Influenza A virus). The assay is described as above.
Assay [21] has as its target H18 (Influenza A virus). Described as above.
Assay [22] has as its target H14 (Influenza A virus). Described as above.
Assay [23] concerns the target H15 (Influenza A virus). Described as above.
For assay [24], the target named is H8 (Influenza A virus). As to the kind of experiment: FACS, HA on mammalian cells; 2nd only 7.9.
Assay [25] has as its target H11 (Influenza A virus). As to the kind of experiment: FACS, HA on mammalian cells; 2nd only 8.1.
The target in assay [26] is HA from an H1N1 Swine Eurasian avian-like (EA) strain, A/Swine/Jiangsu/J004/2018 (influenza A virus (H1N1, A/Swine/Jiangsu/J004/2018)). As to the kind of experiment: flow cytometry, HA on mammalian cells; mock 3.31 [Cont'd].
The target of assay [27] is H13 (Influenza A virus). Nature of the assay: FACS, HA on mammalian cells; 2nd only 12.
Assay [28] has as its target H14 (Influenza A virus). Nature of the assay: FACS, HA on mammalian cells; 2nd only 12.
Assay [29] has as its target H15 (Influenza A virus). Nature of the assay: FACS, HA on mammalian cells; 2nd only 12.
Assay [30] concerns the target H5 hemagglutinin (influenza A virus). Nature of the assay: BLI, HA-5; printed as kdis.
The target of assay [31] is H7 hemagglutinin (influenza A virus). As to the kind of experiment: BLI, HA-7; printed as kdis.
The target of assay [32] is HA from an H1N1 Swine Eurasian avian-like (EA) strain, A/Swine/Jiangsu/J004/2018 (influenza A virus (H1N1, A/Swine/Jiangsu/J004/2018)). Nature of the assay: flow cytometry, HA on mammalian cells; mock 4.41.
For assay [33], the target named is H7 hemagglutinin (influenza A virus). As to the kind of experiment: BLI, HA-7; given as kdis.
Assay [34] deals with H5 hemagglutinin (influenza A virus). Nature of the assay: BLI, HA-5 [Cont'd].
The target in assay [35] is H7 hemagglutinin (influenza A virus). As to the kind of experiment: BLI, HA-7 [Cont'd].
Assay [36] addresses H5 hemagglutinin (influenza A virus). As to the kind of experiment: BLI, HA-5; given as kdis.
Assay [37] concerns the target H17 (Influenza A virus). Nature of the assay: flow cytometry, HA on mammalian cells; mock cells 1.12 [cont'd].
Assay [38] addresses H16 (Influenza A virus). Described as above.
Assay [39] concerns the target H18 (Influenza A virus). Described as above.
Assay [40] concerns the target H14 (Influenza A virus). The description is as above.
Assay [41] concerns the target H15 (Influenza A virus). The assay is described as above.
Assay [42] deals with H8 (Influenza A virus). As to the kind of experiment: flow cytometry, HA on mammalian cells; mock cells 1.12.
Assay [43] deals with H12 (Influenza A virus). The assay is described as above.
For assay [44], the target named is H13 (Influenza A virus). The assay is described as above.
For assay [45], the target named is H11 (Influenza A virus). The assay is described as above.
The target of assay [46] is H4 (Influenza A virus). The assay is described as above.
The target in assay [47] is H10 (Influenza A virus). The assay is described as above.

What is called Kd is a measure of binding affinity in units of concentration. The low end stands for higher affinity, the high end for lower affinity. As a reminder, the kon is the second-order rate constant of association. A low value points to slower complex formation. A word on the koff: it is a measure of how fast the partners let go of each other. A higher koff goes with fast dissociation.

B1: FHF11 (antibody, V domains shown)
VH: QVQLQQSGPGLVKPSQTLSVTCGISGDSVSSHSAAWNWIRQSPSRGLEWLGRTYYRSKWYNDYAVSVKSRITINPDTSKNQFSLQLISVTPEDTAVYYCARVGAMTFGLLTGGMDVWGQGTTVTVSS
VL: EIVLTQSPGTQSLSPGERATLSCRASQSLSRSYLAWYQQRPGKPPRLLIYGASSRATGIPDRFSGSGSGTDFSLTISSLEPEDSAMYFCQYYGDSPLFSFGPGTKVDIK
Take B1: the % cells binding to HA in [1] worked out at 83%; with H16 (Influenza A virus) [2] it was 20%; with H12 (Influenza A virus) [10], 86%; with H18 (Influenza A virus) [11] it was 80%; in the assay with H4 (Influenza A virus) [12], 54%; in the assay with H10 (Influenza A virus) [13], 82%. Also, the % cells binding to HA in [14] was 88%; in the assay with H17 (Influenza A virus) [18] it was 82%; with H8 (Influenza A virus) [24], 80%; in the assay with H11 (Influenza A virus) [25], 62%; with H13 (Influenza A virus) [27], 79%; in the assay with H14 (Influenza A virus) [28] it was 79%. The molecule also displayed a % cells binding to HA with H15 (Influenza A virus) [29] of 76%. Moreover, the Kd in assay [3] was below 0.001 nM; in [17], 2.03 nM. Further, the values for the kon in [3] and in assay [17] were 19900 M⁻¹ s⁻¹ and 24400 M⁻¹ s⁻¹, respectively. In addition, the percent of cells in the gate with H8 (Influenza A virus) [4] came out at 89.2; in the assay with H12 (Influenza A virus) [5], 79.1; in the assay with H13 (Influenza A virus) [6] it was 75.8; in the assay with H11 (Influenza A virus) [7], 42.7; in the assay with H4 (Influenza A virus) [8], 40.6; in the assay with H10 (Influenza A virus) [9] it was 89.7. In addition, the percent of cells in the gate in the assay with H17 (Influenza A virus) [19] stood at 98.2; in the assay with H16 (Influenza A virus) [20] it was 23.2; with H18 (Influenza A virus) [21], 94.3; in the assay with H14 (Influenza A virus) [22] it was 75.2; in the assay with H15 (Influenza A virus) [23] it was 75.6. Also, in assay [15], the Alexa 647-A+ (percent of cells) at 50 µg/ml was 90.7. Moreover, in [16], the Alexa 647-A+ (percent of cells) at 0.4 µg/ml was 84.5. Besides, the Alexa 647-A+ (percent of cells) at 2 µg/ml in assay [26] turned out to be 89.2. The off-rate (koff) in [30] was below 1e-07 s⁻¹; in assay [31] it was 4.95e-05 s⁻¹. Besides, the Alexa 647-A+ (percent of cells) at 10 µg/ml in assay [32] was 90.7.

B2: FHF11v6 (antibody, V domains shown)
VH: B1 VH with K58G
VL: B1 VL
In the case of B2, the % cells binding to HA worked out at 82% in assay [1]; 11% with H16 (Influenza A virus) [2]; 87% in the assay with H12 (Influenza A virus) [10]; 79% with H18 (Influenza A virus) [11]; 49% with H4 (Influenza A virus) [12]; 82% with H10 (Influenza A virus) [13]. The % cells binding to HA in assay [14] came out at 85%; with H17 (Influenza A virus) [18], 82%; with H8 (Influenza A virus) [24], 77%; in the assay with H11 (Influenza A virus) [25], 59%; in the assay with H13 (Influenza A virus) [27], 69%; with H14 (Influenza A virus) [28], 70%. The same molecule displayed a % cells binding to HA in the assay with H15 (Influenza A virus) [29] of 75%. For the same molecule, the figures for the koff in assay [33] and in [36] were 0.000169 s⁻¹ and below 1e-07 s⁻¹, respectively. The results for the Kd in assay [34] and in [35] were below 0.001 nM and 10.4 nM, respectively. Besides, the results for the on-rate (kon) in [34] and in assay [35] were 13600 M⁻¹ s⁻¹ and 16400 M⁻¹ s⁻¹, respectively.

B3: FHF11v3 (antibody, V domains shown)
VH: B1 VH with H32Y
VL: B1 VL
As to B3, the % cells binding to HA in assay [1] worked out at 82%; with H16 (Influenza A virus) [2], 22%; with H12 (Influenza A virus) [10], 85%; with H18 (Influenza A virus) [11], 79%; with H4 (Influenza A virus) [12], 48%; with H10 (Influenza A virus) [13], 77%. In addition, the % cells binding to HA in assay [14] stood at 84%; with H17 (Influenza A virus) [18] it was 82%; in the assay with H8 (Influenza A virus) [24], 78%; in the assay with H11 (Influenza A virus) [25], 59%; in the assay with H13 (Influenza A virus) [27], 79%; with H14 (Influenza A virus) [28], 70%. The molecule also showed a % cells binding to HA in the assay with H15 (Influenza A virus) [29] of 66%. Also, the values for the dissociation constant (Kd) in [3] and in assay [17] were below 0.001 nM and 5.11 nM, respectively. Also, the results for the kon in [3] and in assay [17] were 16400 M⁻¹ s⁻¹ and 23000 M⁻¹ s⁻¹, respectively. Also, the figures for the koff in [30] and in assay [31] were below 1e-07 s⁻¹ and 0.000118 s⁻¹, respectively.

B4: FHF11v9 (antibody, V domains shown)
VH: B1 VH with H32Y, K58G
VL: B1 VL
On to B4, for which the % cells binding to HA in assay [1] turned out to be 80%; with H16 (Influenza A virus) [2] it was 13%; in the assay with H12 (Influenza A virus) [10], 86%; with H18 (Influenza A virus) [11], 78%; with H4 (Influenza A virus) [12], 47%; in the assay with H10 (Influenza A virus) [13], 79%. Moreover, the % cells binding to HA stood at 85% in assay [14]; 82% with H17 (Influenza A virus) [18]; 78% with H8 (Influenza A virus) [24]; 59% with H11 (Influenza A virus) [25]; 75% in the assay with H13 (Influenza A virus) [27]; 70% in the assay with H14 (Influenza A virus) [28]. The % cells binding to HA in the assay with H15 (Influenza A virus) [29] was 63%. For the same molecule, the koff was 0.000193 s⁻¹ in assay [33] and below 1e-07 s⁻¹ in assay [36]. Moreover, the dissociation constant (Kd) in [34] is below 0.001 nM; in assay [35], 9.76 nM. For the same molecule, the kon is 16200 M⁻¹ s⁻¹ in assay [34] and 19800 M⁻¹ s⁻¹ in assay [35].

B5: FHF12 (antibody, V domains shown)
VH: B1 VH with G23A, I87V, M105A, L109I
VL: B1 VL with E17D
B5: in [16], the Alexa 647-A+ (percent of cells) at 0.4 µg/ml came out at 85.1. Moreover, the percent of cells in the gate stood at 98 in the assay with H17 (Influenza A virus) [37]; 25.7 in the assay with H16 (Influenza A virus) [38]; 94.8 in the assay with H18 (Influenza A virus) [39]; 80.4 with H14 (Influenza A virus) [40]; 77.2 in the assay with H15 (Influenza A virus) [41]; 89.6 with H8 (Influenza A virus) [42]. The percent of cells in the gate turned out to be 75.3 with H12 (Influenza A virus) [43]; 79.2 with H13 (Influenza A virus) [44]; 37.8 with H11 (Influenza A virus) [45]; 72.2 with H4 (Influenza A virus) [46]; 88.5 in the assay with H10 (Influenza A virus) [47]. This molecule also yielded an Alexa 647-A+ (percent of cells) at 2 µg/ml in assay [26] of 90.5. Further, in assay [32], the Alexa 647-A+ (percent of cells) at 10 µg/ml was determined as 90.6.
